The text below walks through data of PMC7989959.

The data set addresses alpha-synuclein (UniProt P37840 1-140). Put plainly: electrochemical current sensor.

B1: Abeta aptamer (Tsukakoshi et al) (ssDNA)
DNA: GCCTGTGTTGGGGCGGGTGCG
modifications: 5'-SH (thiol)
As for B1, the binding result is on record as “no binding”.
